The results in this text go back to ChEMBL document CHEMBL2073952, “Na(+)-coupled transport of L-carnitine via high-affinity carnitine transporter OCTN2 and its subcellular localization in kidney” (Biochim Biophys Acta, 2001).

Substrate in this data set: C[N+](C)(C)CC(O)CC(=O)[O-]
The experiment in a line: TP_TRANSPORTER: uptake in membrane vesicle from OCTN2-expressing HEK 293 cell. The class given is functional, cell membranes, HEK293.

B1: Organic cation/carnitine transporter 2 (Homo sapiens) (protein)
chain: MRDYDEVTAFLGEWGPFQRLIFFLLSASIIPNGFTGLSSVFLIATPEHRCRVPDAANLSSAWRNHTVPLRLRDGREVPHSCRRYRLATIANFSALGLEPGRDVDLGQLEQESCLDGWEFSQDVYLSTIVTEWNLVCEDDWKAPLTISLFFVGVLLGSFISGQLSDRFGRKNVLFVTMGMQTGFSFLQIFSKNFEMFVVLFVLVGMGQISNYVAAFVLGTEILGKSVRIIFSTLGVCIFYAFGYMVLPLFAYFIRDWRMLLVALTMPGVLCVALWWFIPESPRWLISQGRFEEAEVIIRKAAKANGIVVPSTIFDPSELQDLSSKKQQSHNILDLLRTWNIRMVTIMSIMLWMTISVGYFGLSLDTPNLHGDIFVNCFLSAMVEVPAYVLAWLLLQYLPRRYSMATALFLGGSVLLFMQLVPPDLYYLATVLVMVGKFGVTAAFSMVYVYTAELYPTVVRNMGVGVSSTASRLGSILSPYFVYLGAYDRFLPYILMGSLTILTAILTLFLPESFGTPLPDTIDQMLRVKGMKHRKTPSHTRMLKDGQERPTILKSTAF
Turning to B1, the Km (as a rule, the substrate concentration at which the rate is half of its maximum) amounted to 2.66 µM.
